For 2 molecules, ID50 results are on record in PMC4378652 (Molecular and cellular endocrinology, 2015).

The experiment addresses T1, rat FSH receptor (rat testis homogenate) (rat (endogenous in rat testis), UniProt P20395 18-692).
T1 sequence (looked up): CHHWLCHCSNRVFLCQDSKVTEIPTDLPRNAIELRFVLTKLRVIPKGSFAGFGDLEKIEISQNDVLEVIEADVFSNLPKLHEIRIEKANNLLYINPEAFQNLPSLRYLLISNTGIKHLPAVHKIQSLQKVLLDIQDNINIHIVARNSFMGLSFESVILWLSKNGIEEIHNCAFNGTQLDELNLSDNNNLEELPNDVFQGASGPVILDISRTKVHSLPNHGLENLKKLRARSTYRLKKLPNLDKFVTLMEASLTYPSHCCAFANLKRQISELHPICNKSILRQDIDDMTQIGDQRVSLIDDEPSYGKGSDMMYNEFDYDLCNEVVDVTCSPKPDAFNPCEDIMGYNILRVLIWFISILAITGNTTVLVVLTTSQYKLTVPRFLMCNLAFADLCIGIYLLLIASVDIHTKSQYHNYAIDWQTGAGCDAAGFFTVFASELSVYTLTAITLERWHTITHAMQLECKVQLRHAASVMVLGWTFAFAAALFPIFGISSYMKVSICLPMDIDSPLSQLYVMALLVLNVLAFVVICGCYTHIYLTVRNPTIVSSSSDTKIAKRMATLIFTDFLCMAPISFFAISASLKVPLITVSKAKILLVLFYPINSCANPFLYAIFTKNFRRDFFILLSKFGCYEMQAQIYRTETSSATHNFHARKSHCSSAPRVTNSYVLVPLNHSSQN
Put plainly: radioligand binding.

B1: Pituitary hFSH^24/21 (AFP7298A) (ligand)
chain 1: not shown
chain 2: NSCELTNITIAIEKEECRFCISINTTWCAGYCYTRDLVYKDPARPKIQKTCTFKELVYETVRVPGCAHHADSLYTYPVATQCHCGKCDSDSTDCTVRGLGPSYCSFGEMKE
modifications: N-glycosylated (positions not given) | mixture of FSHβ^24 (fully glycosylated) and FSHβ^21, FSHβ^24 the more abundant
Molecule B1 returned an ID50 of 114 ng.

B2: Pituitary hFSH^24 (ligand)
chain 1: not shown
chain 2: B1 chain 2
modifications: N-glycosylated (two N-glycans, positions not given) | fully glycosylated FSHβ^24 (N-glycans at Asn7 and Asn24)
With B2, the ID50 amounted to 253 ng.
